3 molecules from patent US20240287172A1 (SCIRHOM, published 2024) can be followed below.

For one assay, the target named is T1, hiR2-FL-H505R-T7 (human, UniProt Q6PJF5 1-856).
T1 sequence: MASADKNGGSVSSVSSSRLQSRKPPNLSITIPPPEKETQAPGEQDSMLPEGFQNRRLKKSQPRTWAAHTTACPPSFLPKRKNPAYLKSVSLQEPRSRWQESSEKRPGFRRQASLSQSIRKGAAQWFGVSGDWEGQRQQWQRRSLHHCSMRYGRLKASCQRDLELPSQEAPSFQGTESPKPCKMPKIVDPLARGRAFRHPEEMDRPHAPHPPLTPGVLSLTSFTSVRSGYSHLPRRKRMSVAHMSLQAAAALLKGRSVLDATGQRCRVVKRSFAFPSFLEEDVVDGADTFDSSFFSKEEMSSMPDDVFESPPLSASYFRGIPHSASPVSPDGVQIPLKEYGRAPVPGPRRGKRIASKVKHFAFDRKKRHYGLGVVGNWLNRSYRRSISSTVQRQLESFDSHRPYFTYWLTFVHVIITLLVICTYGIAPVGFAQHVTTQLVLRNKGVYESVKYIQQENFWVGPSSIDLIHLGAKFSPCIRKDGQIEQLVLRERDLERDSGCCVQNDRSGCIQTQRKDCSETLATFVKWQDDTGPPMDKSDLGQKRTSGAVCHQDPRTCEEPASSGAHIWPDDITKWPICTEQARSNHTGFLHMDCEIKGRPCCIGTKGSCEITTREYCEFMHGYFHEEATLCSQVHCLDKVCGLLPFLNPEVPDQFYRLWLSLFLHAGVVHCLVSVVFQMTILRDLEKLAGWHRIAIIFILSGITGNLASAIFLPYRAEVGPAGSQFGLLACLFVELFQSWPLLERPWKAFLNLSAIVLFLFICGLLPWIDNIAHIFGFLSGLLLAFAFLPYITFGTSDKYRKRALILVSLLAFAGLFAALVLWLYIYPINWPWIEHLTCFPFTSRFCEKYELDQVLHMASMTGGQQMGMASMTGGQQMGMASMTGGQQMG
In words: FACS on MEF-DKO cells.

The target in assay [1] is T2, human iRhom1, endogenously expressed (human, UniProt Q96CC6 1-855).
T2 construct: also called iRhom1 on RH-30 cells
T2 sequence: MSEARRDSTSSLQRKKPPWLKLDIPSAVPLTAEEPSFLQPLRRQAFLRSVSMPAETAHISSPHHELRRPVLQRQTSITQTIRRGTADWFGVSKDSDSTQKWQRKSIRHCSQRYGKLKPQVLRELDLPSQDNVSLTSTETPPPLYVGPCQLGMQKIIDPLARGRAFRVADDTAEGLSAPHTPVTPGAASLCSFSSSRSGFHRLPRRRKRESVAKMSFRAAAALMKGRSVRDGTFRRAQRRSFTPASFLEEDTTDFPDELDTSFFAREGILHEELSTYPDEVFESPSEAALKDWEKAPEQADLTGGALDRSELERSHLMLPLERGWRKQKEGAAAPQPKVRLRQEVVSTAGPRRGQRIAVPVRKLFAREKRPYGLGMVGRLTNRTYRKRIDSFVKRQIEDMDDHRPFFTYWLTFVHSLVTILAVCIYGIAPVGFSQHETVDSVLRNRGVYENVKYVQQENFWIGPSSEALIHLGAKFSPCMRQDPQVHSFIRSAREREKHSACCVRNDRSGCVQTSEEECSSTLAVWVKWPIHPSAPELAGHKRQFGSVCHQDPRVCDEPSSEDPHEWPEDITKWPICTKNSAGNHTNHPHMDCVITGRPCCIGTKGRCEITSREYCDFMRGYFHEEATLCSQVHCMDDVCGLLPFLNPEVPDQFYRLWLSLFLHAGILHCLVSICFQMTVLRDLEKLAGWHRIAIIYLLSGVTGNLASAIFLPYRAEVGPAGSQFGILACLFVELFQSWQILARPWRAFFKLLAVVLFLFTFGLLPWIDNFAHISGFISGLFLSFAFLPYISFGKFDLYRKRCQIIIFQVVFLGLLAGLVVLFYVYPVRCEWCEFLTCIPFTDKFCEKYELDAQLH
In words: FACS on RH-30 cells (iRhom1-positive, not iRhom2-positive).

Another assay concerns the target T3, hiR1-FL-WT-T7 (human, UniProt Q96CC6 1-855).
T3 construct: on MEF-DKO cells
T3 sequence: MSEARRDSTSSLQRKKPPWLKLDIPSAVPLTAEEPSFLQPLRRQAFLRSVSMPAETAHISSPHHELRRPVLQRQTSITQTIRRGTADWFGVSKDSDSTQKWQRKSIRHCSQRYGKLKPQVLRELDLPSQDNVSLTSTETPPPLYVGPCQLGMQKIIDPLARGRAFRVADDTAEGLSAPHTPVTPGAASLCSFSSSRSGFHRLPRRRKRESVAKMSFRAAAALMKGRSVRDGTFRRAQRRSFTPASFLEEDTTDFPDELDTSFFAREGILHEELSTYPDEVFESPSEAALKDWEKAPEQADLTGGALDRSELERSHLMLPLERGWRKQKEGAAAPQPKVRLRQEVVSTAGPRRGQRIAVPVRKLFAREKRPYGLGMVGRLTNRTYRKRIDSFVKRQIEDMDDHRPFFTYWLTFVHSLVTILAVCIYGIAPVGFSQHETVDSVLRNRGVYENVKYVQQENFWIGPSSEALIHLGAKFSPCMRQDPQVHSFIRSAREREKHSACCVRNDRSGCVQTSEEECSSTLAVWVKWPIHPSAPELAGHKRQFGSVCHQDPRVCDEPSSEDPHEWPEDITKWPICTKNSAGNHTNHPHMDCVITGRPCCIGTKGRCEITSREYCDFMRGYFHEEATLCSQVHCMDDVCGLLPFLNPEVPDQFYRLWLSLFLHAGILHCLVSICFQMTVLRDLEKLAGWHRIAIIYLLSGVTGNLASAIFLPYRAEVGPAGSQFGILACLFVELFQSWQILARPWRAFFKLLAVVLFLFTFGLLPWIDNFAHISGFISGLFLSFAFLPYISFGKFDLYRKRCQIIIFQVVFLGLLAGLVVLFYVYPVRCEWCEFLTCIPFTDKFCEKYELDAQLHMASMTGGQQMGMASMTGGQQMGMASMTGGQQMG
The assay is described as follows: FACS on MEF-DKO-hiR1-FL-WT-T7 cells.

Positions count from the first letter of the chain named.

B1: antibody 50 (antibody, V domains shown)
VH: QVQLQQSGAELVRPGASVKVSCKASGYAFSNYLIEWVKQRPGQGLEWIGVINPGSGFTKYNEKFKGKATLTADKSSSTAYMQLSSLTSEDSAVYFCARGLYRAMDYWGQGTSVTVSS
VL: DIQMTQSPASQSASLGESVTITCLASQTIGTWLAWYQQKPGKSPQLLIYAAASLADGVPSRFSGGGSGTKFSFKISSLQAEDFVNYYCQQIYSTPYTFGGGTKLEIK
notes: mouse IgG, kappa light chain; also called clone #50; purified antibody 50
Turning to B1, the binding result with hiR2-FL-H505R-T7 was “no binding (tested: 3 µg/ml)”.

B2: antibody 16 (antibody, V domains shown)
VH: QVTLKESGPGILQPSQTLSLTCSFSGFSLSTFALGVGWIRQPSGRGLEWLAHIWWDDDKYYNPALKSRLTISKDTSKNHVFLKIANVDTADTATYYCARITTYYYGMDYWGQGTSVTVSS
VL: DIVLSQSPATLSVTPGDSVSLFCRASQSIGNHLHWYQQESHASPRLLIKYASQSISGIPSRFSGSGSGTDFTLSINSVETEDFGMYFCQQSYNWPLTFGAGTKLELK
notes: mouse IgG, kappa light chain; also called clone #16; purified antibody 16
As to B2, in assay [1], the binding result was “no binding (tested: 3 µg/ml)”.

B3: antibody 3 (antibody, V domains shown)
VH: QVTLKESGPGILQPSQTLSLTCSFSGFSLTTFAMGIGWVRQPSGKGLEWLAHIWWDGEKYNNPVLKSRLTISKDTSKNQVFLRIANVDTPDTATYYCARISSIYYIIDNWGQGTSVTVSS
VL: B2 VL with S5T, D17H, F22S, G30S, H32N, Q38K, E39K, A42E, A51V
notes: mouse IgG, kappa light chain; also called clone #3; purified antibody 3
On to B3, for which the binding result with hiR1-FL-WT-T7 is “no binding (tested: 3 µg/ml)”.
